Patent publication US6780603

Biological target: α2β1 integrin receptor of human mesangial cells (human) (UniProt P05556)
Test: cell-based or functional assay

- inhibition of adhesion of human mesangial cells grown in 5 mM glucose to cIV (percent of binding in the presence of W6/32): 60%
- inhibition of adhesion of human mesangial cells grown in 25 mM glucose to cIV (percent of binding in the presence of W6/32): 75%
Substance: P1H5 anti-α2 integrin monoclonal antibody
